pKd: −log10 of the molar value.

From paper doi:10.1101/2025.07.03.662971 come the findings set out here.

Assay [1] deals with FITC labeled GKAP C-terminus peptide (CT12) (human). Put plainly: fluorescence polarisation.
The target of assay [2] is 6xHis-tagged GH1 or CT43 protein (ligand of the Ni-NTA BLI) (rat) (UniProt P97836). Put plainly: BLI.
In assay [3] the target is GST-tagged 12 amino acid mTOR peptide (human). Put plainly: BLI.
The target in assay [4] is GST-tagged 12 amino acid ATG13 peptide (human). Put plainly: BLI.
Assay [5] concerns the target GST-tagged 12 amino acid ARAP3 peptide (human). Put plainly: BLI.
Assay [6] has as its target GST-tagged 12 amino acid βPIX peptide (human). Put plainly: BLI.

6xHis-tagged GH1 or CT43 protein (ligand of the Ni-NTA BLI) (rat), sequence (P97836 807-992): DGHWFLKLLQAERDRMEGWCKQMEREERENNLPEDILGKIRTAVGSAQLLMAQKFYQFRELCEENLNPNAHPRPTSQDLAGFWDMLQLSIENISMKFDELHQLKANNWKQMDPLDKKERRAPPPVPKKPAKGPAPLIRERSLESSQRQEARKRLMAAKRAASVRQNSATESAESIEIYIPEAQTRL

“Shank1-PDZ G734S variant (domain or fragment)” had a pKd in assay [1] of 4.97.

As for “Shank1-PDZ R679W variant (domain or fragment)”, the pKd in assay [2] was 4.84; in assay [1], 3.49.

In assay [1], “Shank1-PDZ R736Q variant (domain or fragment)” had a pKd of 5.59.

As to “Shank1-PDZ R743H variant (domain or fragment)”, the pKd in assay [1] was 5.12. This pKd is 0.47 log units lower than that of the substance before.

“Shank1-PDZ V677M variant (domain or fragment)”: in assay [1], the pKd is 4.77.

As for “wild type Shank1-PDZ domain (domain or fragment)”, the pKd in assay [2] was 5.82; in assay [3], 3.14; in assay [4], 4.41; in assay [5], 4.45; in assay [6], 4.63; in assay [1], 5.34.
